The term Kd denotes the free concentration of one partner at which half of the binding sites on the other are occupied at equilibrium, for simple one-to-one binding.

Among the data in article PMC5039489 are phosphorylation activity on the substrate peptide … by capillary electrophoresis: CK2α-DBCO545 with purified CK2β added in a 1:1 ratio against CK2α-DBCO545 alone, mean fluorescence intensity (mF) and Kd values, retold here.

The target of assay [1] is CK2α-DBCO545 (human protein kinase CK2α subunit with pAzF at position 239, coupled to DBCO545) (human) (UniProt P68400).
Assay [2] has as its target CK2β autotransporter fusion protein (CK2β-AT), displayed on the surface of E. coli by Autodisplay (human). The assay can be described thus: flow cytometry on cells; E. coli BL21(DE3) cells displaying the protein by Autodisplay (OD578 = 1, 20 µL) incubated with 10 µL purified CK2α-DBCO545 for 60 min at 37 °C, washed three times with PBS; 561 nm laser; 50,000 cells. A general note: A flow cytometer gives signals particle by particle.

Assay [3] has as its target CK2α-DBCO-Sulfo-Cy5 (human protein kinase CK2α subunit with pAzF at position 239, coupled to DBCO-Sulfo-Cy5) (human) (UniProt P68400). As to the kind of experiment: MST; CK2α-DBCO-Sulfo-Cy5 constant (65 nM), αS1-casein titrated from 0.76 nM to 12.50 µM; kinase buffer (50 mM Tris/HCl pH 8.5, 25 mM NaCl, 20 mM MgCl2) with 0.1% Tween-20; samples incubated at 37 °C for 90 min; recorded at 30 °C; Monolith NT.115; three independent experiments.

Regarding “purified regulatory CK2β-subunit (from UniProt P67870 1-215) (natural protein)”, in assay [1], the phosphorylation activity on the substrate peptide … by capillary electrophoresis: CK2α-DBCO545 with purified CK2β added in a 1:1 ratio against CK2α-DBCO545 alone came to 8 fold.

B1: CK2α-DBCO545 (human protein kinase CK2α subunit with pAzF at position 239, coupled to DBCO545) (enzyme)
chain: MSGPVPSRARVYTDVNTHRPREYWDYESHVVEWGNQDDYQLVRKLGRGKYSEVFEAINITNNEKVVVKILKPVKKKKIKREIKILENLRGGPNIITLADIVKDPVSRTPALVFEHVNNTDFKQLYQTLTDYDIRFYMYEILKALDYCHSMGIMHRDVKPHNVMIDHEHRKLRLIDWGLAEFYHPGQEYNVRVASRYFKGPELLVDYQMYDYSLDMWSLGCMLASMIFRKEPFFHGHDN
modifications: para azidophenylalanine (pAzF) at 239, coupled to dibenzylcyclooctyne-fluor 545 (DBCO545) by SPAAC click reaction
On to B1, for which the mean fluorescence intensity (mF) in assay [2] came out at 3800.

B2: human αS1-casein (natural protein)
chain: RPKLPLRYPERLQNPSESSEPIPLESREEYMNGMNRQRNILREKQTDEIKDTRNESTQNCVVAEPEKMESSISSSSEEMSLSKCAEQFCRLNEYNQLQLQAAHAQEQIRRMNENSHVQVPFQQLNQLAAYPYAVWYYPQIMQYVPFPPFSDISNPTAHENYEKNNVMLQW
B2 returned a Kd in assay [3] of 0.631 µM.
